{
  "source": "patent US20170209529A1",
  "about": "(BRIGHAM AND WOMEN S HOSPITAL, published 2017)",
  "binders": {"B1": {"name": "SYN3258 (peptide)", "peptide": "Ac-RYFCTKWKHGWCEEVGTGGGRYFCTKWKHGWCEEVGT-NH2", "modifications": "disulfide 4-12, 24-32 (inferred)", "notes": "37-mer, two SYN1753 units joined by GGG; also called Ac-[SYN1753]-GGG-[SYN1753]-CONH2"}, "B2": {"name": "SYN1327 (peptide)", "peptide": "RFXTGHFGXLYPC", "modifications": "N-terminal acetyl; C-terminal amide; Pen (L-penicillamine) at 3; Sar (sarcosine) at 9; NMeLeu (L-N-methylleucine) at 10"}, "B3": {"name": "SYN1383 (peptide)", "peptide": "Ac-VMHCFWDEEFRCEYV-NH2", "modifications": "disulfide 4-12 (inferred)", "notes": "Truncated and SAR-optimized analog of SYN514"}},
  "key": {"[1]": {"target": "T1, soluble human FcRn (shFcRn) (human, UniProt P55899 24-297; P61769 21-119)", "T1 construct": "For crystallography it was expressed in CHOK1SV cells and deglycosylated with PNGaseF; biotinylated for phage selection; also called hFcRn/β2m; FcRn-biotin", "T1 sequence (P55899 24-297 limits assumed, chain 1 of 2)": "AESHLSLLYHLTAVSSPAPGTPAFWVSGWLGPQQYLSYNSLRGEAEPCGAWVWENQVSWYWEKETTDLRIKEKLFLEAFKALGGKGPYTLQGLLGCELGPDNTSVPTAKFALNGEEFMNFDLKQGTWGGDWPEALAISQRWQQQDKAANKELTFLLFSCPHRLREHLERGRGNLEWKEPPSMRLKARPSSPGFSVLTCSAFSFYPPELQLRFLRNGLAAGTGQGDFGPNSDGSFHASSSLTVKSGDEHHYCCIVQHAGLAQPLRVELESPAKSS", "T1 sequence (P61769 21-119 limits assumed, chain 2 of 2)": "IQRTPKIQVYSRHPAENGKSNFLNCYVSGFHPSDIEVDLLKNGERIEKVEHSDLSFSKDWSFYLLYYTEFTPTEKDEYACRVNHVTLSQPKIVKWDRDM", "assay": "SPR (Biacore), pH 7.4", "method": "(§1) SPR analyses: SPR analyses were conducted using a Biacore 3000 or T100 instrument. Research-grade CMS sensor chips and all coupling reagents for immobilization were purchased from Biacore. All proteins were cross-linked to the dextran surface of a CM5 sensor chip by standard amine coupling chemistry as recommended by Biacore. […] Binding experiments were performed at pH 6.0 or 7.4 using 50 mM phosphate, 100 mM sodium chloride and 0.01% surfactant P20. […] Bound albumin protein was then allowed to dissociate from the chip for 5 minutes with running buffer. Any remaining albumin was removed from the chip with a 60 second injection (2 cycles) of pH 8.0 Tris-HCl regeneration buffer (1 M Tris pH 8.0) at 25 μL/min flow rate. The binding responses recorded near the end of the association phase were plotted as a function of concentration. Equilibrium dissociation constants (KD), were derived from sensorgrams using the 1:1 binding model of BlAevaluation software 4.1."}, "[2]": {"target": "T1, soluble human FcRn (shFcRn)", "assay": "SPR (Biacore), pH 6.0; pH 6.0"}, "[3]": {"target": "T1, soluble human FcRn (shFcRn)", "assay": "SPR (Biacore), immobilized shFcRn, pH 7.4"}, "[4]": {"target": "T1, soluble human FcRn (shFcRn)", "assay": "SPR (Biacore), Kd pH 7.4 divided by Kd pH 6.0"}, "[5]": {"target": "T1, soluble human FcRn (shFcRn)", "assay": "SPR (Biacore), immobilized shFcRn, pH 6, steady-state fit"}, "[6]": {"target": "T1, soluble human FcRn (shFcRn)", "assay": "SPR (Biacore), immobilized shFcRn, pH 6, fit 'ss'"}, "[7]": {"target": "T1, soluble human FcRn (shFcRn)", "assay": "SPR (Biacore), immobilized shFcRn, pH 7.4", "remark": "listed apart in the source"}, "[8]": {"target": "T1, soluble human FcRn (shFcRn)", "assay": "SPR (Biacore), Kd pH 7.4 divided by Kd pH 6.0", "remark": "listed apart in the source"}, "[9]": {"target": "T1, soluble human FcRn (shFcRn)", "assay": "SPR (Biacore), immobilized shFcRn, pH 6, 2 site fit"}, "[10]": {"target": "T1, soluble human FcRn (shFcRn)", "assay": "SPR (Biacore), immobilized shFcRn, pH 6, steady-state fit", "remark": "listed apart in the source"}, "[11]": {"target": "T1, soluble human FcRn (shFcRn)", "assay": "SPR (Biacore), immobilized shFcRn, pH 6"}, "[12]": {"target": "T1, soluble human FcRn (shFcRn)", "assay": "SPR (Biacore), immobilized shFcRn, pH 6, steady-state fit; pH 6; first of two values in the cell, marked *; immobilized shFcRn"}, "[13]": {"target": "T1, soluble human FcRn (shFcRn)", "assay": "SPR (Biacore), pH 6.0", "method": "as §1"}, "[14]": {"target": "T1, soluble human FcRn (shFcRn)", "assay": "method not stated in the sentence (Example 5, description of peptides); approximate KD in the Example 5 text, pH and method not stated"}, "[15]": {"target": "T1, soluble human FcRn (shFcRn)", "assay": "phage display hit; X-ray crystallography"}, "[16]": {"target": "T1, soluble human FcRn (shFcRn)", "assay": "SPR (Biacore), immobilized shFcRn, pH 6; data fit column: aggregates/non specific"}},
  "note": "Several values for one entry are separate records, joined by “and”; a condition that tells them apart may be missing. Identical values can stand only once. Like-named read-outs stand apart in the source and are kept apart here. Bridge positions count the residues as written; N and C are the ends.",
  "data": [
    {"binder": "Ac-AGRYFCTKWKHGWCEEVGTGGGK-NH2 (disulfide 6-14 (inferred))", "note": "[SYN571]", "values": [
      {"measurement": "Kd", "setting": "[1]", "result": 13100, "unit": "nM"},
      {"measurement": "Kd", "setting": "[2]", "result": 500, "unit": "nM"},
      {"measurement": "Kd", "setting": "[3]", "result": 13100, "unit": "nM"},
      {"measurement": "Kd Ratio 7.4/6.0", "setting": "[4]", "result": 29},
      {"measurement": "Kd", "setting": "[5]", "result": "450 nM and 500 nM"}
    ]},
    {"binder": "Ac-YATCKWDDGFSCEYV-NH2 (disulfide 4-12 (inferred))", "note": "[SYN1145]", "values": [
      {"measurement": "Kd", "setting": "[6]", "result": 57000, "unit": "nM"}
    ]},
    {"binder": "Ac-YMACKWDDGFSCEYV-NH2 (disulfide 4-12 (inferred))", "note": "[SYN1146]", "values": [
      {"measurement": "Kd", "setting": "[7]", "result": 8600, "unit": "nM"},
      {"measurement": "Kd Ratio 7.4/6.0", "setting": "[8]", "result": 34.4},
      {"measurement": "Kd", "setting": "[9]", "result": 250, "unit": "nM"}
    ]},
    {"binder": "Ac-YMTCAWDDGFSCEYV-NH2 (disulfide 4-12 (inferred))", "note": "[SYN1147]", "values": [
      {"measurement": "Kd", "setting": "[7]", "result": 27000, "unit": "nM"},
      {"measurement": "Kd Ratio 7.4/6.0", "setting": "[8]", "result": 56},
      {"measurement": "Kd", "setting": "[9]", "result": 470, "unit": "nM"},
      {"measurement": "Kd", "setting": "[10]", "result": 480, "unit": "nM"}
    ]},
    {"binder": "Ac-YMTCKWDAGFSCEYV-NH2 (disulfide 4-12 (inferred))", "note": "[SYN1150]", "values": [
      {"measurement": "Kd", "setting": "[7]", "result": 400, "unit": "nM"},
      {"measurement": "Kd Ratio 7.4/6.0", "setting": "[8]", "result": 2.2},
      {"measurement": "Kd", "setting": "[9]", "result": 180, "unit": "nM"}
    ]},
    {"binder": "Ac-YMTCKWDDGASCEYV-NH2 (disulfide 4-12 (inferred))", "note": "[SYN1152]", "values": [
      {"measurement": "binding result", "setting": "[11]", "result": "no binding"}
    ]},
    {"binder": "Ac-TCKWDDGFSCEYV-NH2 (disulfide 2-10 (inferred))", "note": "[SYN1162]", "values": [
      {"measurement": "Kd", "setting": "[11]", "result": 97600, "unit": "nM"}
    ]},
    {"binder": "Ac-YMTCKWDDGFSCEY-NH2 (disulfide 4-12 (inferred))", "note": "[SYN1164]", "values": [
      {"measurement": "Kd", "setting": "[11]", "result": 570, "unit": "nM"}
    ]},
    {"binder": "Ac-YMTCKWDDGFSCE-NH2 (disulfide 4-12 (inferred))", "note": "[SYN1165]", "values": [
      {"measurement": "Kd", "setting": "[11]", "result": 40300, "unit": "nM"}
    ]},
    {"binder": "YMTXKWDDGFSCEYV (N-terminal acetyl; C-terminal amide; Pen (penicillamine) at position 4)", "note": "[SYN1167]", "values": [
      {"measurement": "Kd", "setting": "[11]", "result": 2030, "unit": "nM"}
    ]},
    {"binder": "YMTCKWDDGFSXEYV (N-terminal acetyl; C-terminal amide; Pen (penicillamine) at position 12)", "note": "[SYN1168]", "values": [
      {"measurement": "Kd", "setting": "[11]", "result": 1940, "unit": "nM"}
    ]},
    {"binder": "YMTXKWDDGFSXEYV (N-terminal acetyl; C-terminal amide; Pen (penicillamine) at positions 4 and 12)", "note": "[SYN1169]", "values": [
      {"measurement": "Kd", "setting": "[11]", "result": 870, "unit": "nM"}
    ]},
    {"binder": "Ac-VMKCWWDEEFLCRAF-NH2 (disulfide 4-12 (inferred))", "note": "[SYN1536]", "values": [
      {"measurement": "Kd", "setting": "[7]", "result": 1100, "unit": "nM"},
      {"measurement": "Kd Ratio 7.4/6.0", "setting": "[8]", "result": 61},
      {"measurement": "Kd", "setting": "[10]", "result": 18, "unit": "nM"},
      {"measurement": "Kd", "setting": "[12]", "result": 31, "unit": "nM"}
    ]},
    {"binder": "Ac-RYFCTKWKHGWCEEVGT-NH2 (disulfide 4-12 (inferred))", "note": "[SYN1753]", "values": [
      {"measurement": "Kd", "setting": "[13]", "result": 500, "unit": "nM"}
    ]},
    {"binder": "B1", "values": [
      {"measurement": "Kd", "setting": "[13]", "result": 3.6, "unit": "nM"}
    ]},
    {"binder": "B2", "values": [
      {"measurement": "Kd", "setting": "[13]", "result": 31, "unit": "nM"},
      {"measurement": "Kd", "setting": "[1]", "result": 170, "unit": "nM"},
      {"measurement": "Kd", "setting": "[14]", "result": "~25", "unit": "nM"}
    ]},
    {"binder": "B3", "values": [
      {"measurement": "Kd", "setting": "[13]", "result": 32, "unit": "nM"},
      {"measurement": "Kd", "setting": "[1]", "result": 1100, "unit": "nM"},
      {"measurement": "Kd", "setting": "[7]", "result": 1100, "unit": "nM"},
      {"measurement": "Kd Ratio 7.4/6.0", "setting": "[8]", "result": 34},
      {"measurement": "Kd", "setting": "[10]", "result": 32, "unit": "nM"}
    ]},
    {"binder": "Ac-AGVMHCFWDEEFKCDQGGTGGGK-NH2 (disulfide 6-14 (inferred))", "note": "[SYN514]", "values": [
      {"measurement": "binding result", "setting": "[15]", "result": "binds"}
    ]},
    {"binder": "Ac-AGYMTCKWDDGFSCEYVGTGGGK-NH2 (disulfide 6-14 (inferred))", "note": "[SYN515]", "values": [
      {"measurement": "Kd", "setting": "[7]", "result": 18000, "unit": "nM"},
      {"measurement": "Kd Ratio 7.4/6.0", "setting": "[8]", "result": 78},
      {"measurement": "Kd", "setting": "[9]", "result": 230, "unit": "nM"}
    ]},
    {"binder": "Ac-CKWDDGFSCEYV-NH2 (disulfide 1-9 (inferred))", "note": "[SYN1163]", "values": [
      {"measurement": "binding result", "setting": "[11]", "result": "no binding"}
    ]},
    {"binder": "Ac-VMHAFWDEEFRAEYV-NH2", "note": "[SYN1559]", "values": [
      {"measurement": "binding result", "setting": "[16]", "result": "no binding"}
    ]}
  ]
}
